The target of this assay is mouse CD147 (mouse) (UniProt P18572).

A value given as a limit tells only on which side of the number the result lay.

In the case of “Rat anti-mouse CD147 monoclonal antibody purified from the RL73.2 hybridoma”, the migration induced by CypA (Boyden chamber chemotaxis) of mouse neutrophils, monocytes and activated CD4+ T cells was > 90%.

The record behind these values is patent US20090258024A1.
